Assay results published in patent publication US20240301064A1 (published 2024).
Numbering of substitutions follows the chain as printed. Values joined by “and” are separate entries in the source; they are usually repeats but may differ in a detail not shown here. Identical values can stand only once. Each block holds one binder with its values, some of them ahead of it.

Target: T1, human PD-1 (human, UniProt Q15116 25-167, limits assumed)
T1 construct: also called huPD-1
Assay: BLI, antibody on AHC tip, soluble PD-1

T1 sequence (Q15116 25-167 limits assumed): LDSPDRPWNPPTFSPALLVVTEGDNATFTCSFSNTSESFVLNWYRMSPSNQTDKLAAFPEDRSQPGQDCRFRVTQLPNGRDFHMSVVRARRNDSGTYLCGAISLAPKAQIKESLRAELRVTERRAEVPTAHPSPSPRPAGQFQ

B6: PMAB119 (bispecific antibody, human IgG1, kappa)
heavy: QVQLVQSGAEVKKPGASVKVSCKASGYSFTTYYMHWVRQAPGQGLEWMGIIAPSGGSTSYAQKFQGRVTMTRDTSTSTVYMELSSLRSEDTAVYYCASGWVYWGQGTLVTVSSASTKGPSVFPLAPSSKSTSGGTAALGCLVKDYFPEPVTVSWNSGALTSGVHTFPAVLQSSGLYSLSSVVTVPSSSLGTQTYICNVNHKPSNTKVDKKVEPKSCDKTHTCPPCPAPEAAGAPSVFLFPPKPKDTLMISRTPEVTCVVVDVSHEDPEVKFNWYVDGVEVHNAKTKPREEQYNSTYRVVSVLTVLHQDWLNGKEYKCKVSNKALPAPIEKTISKAKGQPREPQVYTLPPSREEMTKNQVSLTCLVKGFYPSDIAVEWESNGQPENNYKTTPPVLDSDGSFFLYSKLTVDKSRWQQGNVFSCSVMHEALHNHYTQKSLSLSPGGGGGSGGGGSGGGGSEVQLLESGGGLVQPGGSLRLSCAASGFTFSDFWMHWVRQAPGKGLEWISYISGDSGYTNYADSVKGRFTISRDNSKNTLYLQMNSLRAEDTAVYYCARDRPYYYYMDVWGKGTTVTVSSGGGGSGGGGSGGGGSGGGGSDIQMTQSPSSLSASVGDRVTITCRASQSVSRSLAWYQQKPGKAPKLLIYAASSLQSGVPSRFSGSGSGTDFTLTISSLQPEDFATYYCQQYKSYPVTFGQGTKVEIK
light: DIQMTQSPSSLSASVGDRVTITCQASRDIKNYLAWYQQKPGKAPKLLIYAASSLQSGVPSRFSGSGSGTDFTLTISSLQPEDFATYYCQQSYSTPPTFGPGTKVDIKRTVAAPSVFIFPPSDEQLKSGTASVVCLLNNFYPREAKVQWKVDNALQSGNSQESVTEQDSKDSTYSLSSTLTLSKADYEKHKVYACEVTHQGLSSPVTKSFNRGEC
Kd: 96.9 nM

B7: PMAB113 (bispecific antibody, human IgG1, kappa)
heavy: B6 heavy
light: not shown
Kd: 91.7 nM

B8: PMAB111 (bispecific antibody, human IgG1, kappa)
heavy: B6 heavy
light: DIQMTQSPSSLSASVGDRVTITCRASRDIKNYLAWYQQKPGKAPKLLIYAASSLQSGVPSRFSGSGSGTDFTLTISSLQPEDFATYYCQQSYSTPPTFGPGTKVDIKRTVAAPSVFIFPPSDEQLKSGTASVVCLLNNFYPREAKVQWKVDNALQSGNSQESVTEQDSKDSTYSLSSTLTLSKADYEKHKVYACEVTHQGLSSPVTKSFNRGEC
Kd: 67.6 nM

B9: PMAB112 (bispecific antibody, human IgG1, kappa)
heavy: B6 heavy
light: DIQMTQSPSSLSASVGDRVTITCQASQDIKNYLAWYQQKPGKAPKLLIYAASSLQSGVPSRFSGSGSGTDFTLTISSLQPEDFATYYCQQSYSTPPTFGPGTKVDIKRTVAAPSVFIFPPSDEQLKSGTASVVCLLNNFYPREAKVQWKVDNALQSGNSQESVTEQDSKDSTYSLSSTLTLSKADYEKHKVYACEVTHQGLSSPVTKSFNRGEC
Kd: 76.2 nM

B10: PMAB109 (bispecific antibody, human IgG1, kappa)
heavy: B6 heavy with T31S
light: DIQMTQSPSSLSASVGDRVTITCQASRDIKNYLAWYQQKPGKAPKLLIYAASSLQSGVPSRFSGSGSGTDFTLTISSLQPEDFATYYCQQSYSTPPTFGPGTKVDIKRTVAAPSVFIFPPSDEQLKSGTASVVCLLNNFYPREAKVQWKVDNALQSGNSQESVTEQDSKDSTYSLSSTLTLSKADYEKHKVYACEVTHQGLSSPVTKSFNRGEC
Kd: 85.9 nM

B11: PMAB115 (bispecific antibody, human IgG1, kappa)
heavy: B6 heavy
light: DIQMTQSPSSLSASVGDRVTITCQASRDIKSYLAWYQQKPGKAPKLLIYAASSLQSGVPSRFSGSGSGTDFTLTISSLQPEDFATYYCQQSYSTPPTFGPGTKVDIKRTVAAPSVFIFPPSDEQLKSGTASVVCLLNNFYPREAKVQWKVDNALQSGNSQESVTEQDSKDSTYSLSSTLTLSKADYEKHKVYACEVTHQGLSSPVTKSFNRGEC
Kd: 229 nM

B12: PMAB114 (bispecific antibody, human IgG1, kappa)
heavy: B6 heavy
light: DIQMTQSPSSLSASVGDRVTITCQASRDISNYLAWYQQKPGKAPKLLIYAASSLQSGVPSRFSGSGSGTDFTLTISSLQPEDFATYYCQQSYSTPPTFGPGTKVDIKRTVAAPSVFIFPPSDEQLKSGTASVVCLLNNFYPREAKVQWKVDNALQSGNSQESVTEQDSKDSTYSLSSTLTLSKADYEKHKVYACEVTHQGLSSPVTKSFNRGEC
Kd: 113 nM

B13: PMAB108 (bispecific antibody, human IgG1, kappa)
heavy: B6 heavy with S28T
light: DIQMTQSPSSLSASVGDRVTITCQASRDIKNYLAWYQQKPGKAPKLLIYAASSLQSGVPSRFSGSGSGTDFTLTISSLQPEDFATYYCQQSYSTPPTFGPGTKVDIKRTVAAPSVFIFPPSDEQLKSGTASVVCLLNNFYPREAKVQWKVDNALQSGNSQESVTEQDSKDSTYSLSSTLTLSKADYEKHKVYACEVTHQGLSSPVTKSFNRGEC
Kd: 55.3 nM

B14: PMAB134 (bispecific antibody, human IgG1, kappa)
heavy: EVQLLESGGGLVQPGGSLRLSCAASGFTFSNSDMSWVRQAPGKGLEWVSGITISGGSTYYADSVKGRFTISRDNSKNTLYLQMNSLRAEDTAVYYCARGRGGSGWLDYWGQGTLVTVSSASTKGPSVFPLAPSSKSTSGGTAALGCLVKDYFPEPVTVSWNSGALTSGVHTFPAVLQSSGLYSLSSVVTVPSSSLGTQTYICNVNHKPSNTKVDKKVEPKSCDKTHTCPPCPAPEAAGAPSVFLFPPKPKDTLMISRTPEVTCVVVDVSHEDPEVKFNWYVDGVEVHNAKTKPREEQYNSTYRVVSVLTVLHQDWLNGKEYKCKVSNKALPAPIEKTISKAKGQPREPQVYTLPPSREEMTKNQVSLTCLVKGFYPSDIAVEWESNGQPENNYKTTPPVLDSDGSFFLYSKLTVDKSRWQQGNVFSCSVMHEALHNHYTQKSLSLSPGGGGGSGGGGSGGGGSEVQLLESGGGLVQPGGSLRLSCAASGFTFSDFWMHWVRQAPGKGLEWISYISGDSGYTNYADSVKGRFTISRDNSKNTLYLQMNSLRAEDTAVYYCARDRPYYYYMDVWGKGTTVTVSSGGGGSGGGGSGGGGSGGGGSDIQMTQSPSSLSASVGDRVTITCRASQSVSRSLAWYQQKPGKAPKLLIYAASSLQSGVPSRFSGSGSGTDFTLTISSLQPEDFATYYCQQYKSYPVTFGQGTKVEIK
light: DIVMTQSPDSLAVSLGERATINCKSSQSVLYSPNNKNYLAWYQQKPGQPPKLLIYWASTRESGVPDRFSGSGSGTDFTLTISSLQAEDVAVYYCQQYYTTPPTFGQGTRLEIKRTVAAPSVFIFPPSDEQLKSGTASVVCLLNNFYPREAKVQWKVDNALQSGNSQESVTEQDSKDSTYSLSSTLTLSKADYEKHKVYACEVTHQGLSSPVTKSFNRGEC
Kd: 6 nM and 11.6 nM and 11.1 nM

B15: PMAB176 (bispecific antibody, human IgG1, kappa)
heavy: B14 heavy with N31S, S32Y, G50A
light: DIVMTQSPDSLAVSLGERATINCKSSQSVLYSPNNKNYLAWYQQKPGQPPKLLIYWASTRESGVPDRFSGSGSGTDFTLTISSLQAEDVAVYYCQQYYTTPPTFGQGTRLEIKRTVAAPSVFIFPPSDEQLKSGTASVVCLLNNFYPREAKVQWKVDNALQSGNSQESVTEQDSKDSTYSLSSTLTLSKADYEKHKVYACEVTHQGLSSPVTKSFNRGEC
Kd: 894 nM

B18: PMAB138 (bispecific antibody, human IgG1, kappa)
heavy: B14 heavy with G50A
light: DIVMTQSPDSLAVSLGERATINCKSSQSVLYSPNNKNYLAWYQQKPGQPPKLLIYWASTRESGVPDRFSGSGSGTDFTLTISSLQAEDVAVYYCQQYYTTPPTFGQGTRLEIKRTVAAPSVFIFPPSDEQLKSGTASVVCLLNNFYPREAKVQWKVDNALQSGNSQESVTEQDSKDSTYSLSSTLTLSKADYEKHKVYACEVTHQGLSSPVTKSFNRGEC
Kd: 53 nM

B19: PMAB139 (bispecific antibody, human IgG1, kappa)
heavy: B14 heavy with T52S
light: not shown
Kd: 50 nM

B20: PMAB175 (bispecific antibody, human IgG1, kappa)
heavy: B14 heavy with N31S, S32Y
light: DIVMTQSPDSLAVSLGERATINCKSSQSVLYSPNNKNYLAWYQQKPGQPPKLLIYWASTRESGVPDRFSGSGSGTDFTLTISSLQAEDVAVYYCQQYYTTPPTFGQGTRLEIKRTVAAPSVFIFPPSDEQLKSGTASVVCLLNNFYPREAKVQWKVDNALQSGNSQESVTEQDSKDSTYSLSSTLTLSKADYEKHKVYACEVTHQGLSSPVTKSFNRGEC
Kd: 77.1 nM

B21: PMAB143 (bispecific antibody, human IgG1, kappa)
heavy: B14 heavy
light: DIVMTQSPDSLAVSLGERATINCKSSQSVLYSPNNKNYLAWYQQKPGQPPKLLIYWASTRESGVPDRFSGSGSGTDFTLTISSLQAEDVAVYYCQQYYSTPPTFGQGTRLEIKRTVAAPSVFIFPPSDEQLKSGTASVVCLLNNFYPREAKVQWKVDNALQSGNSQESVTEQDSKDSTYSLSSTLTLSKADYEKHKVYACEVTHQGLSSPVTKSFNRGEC
Kd: 17 nM

B22: PMAB140 (bispecific antibody, human IgG1, kappa)
heavy: B14 heavy with I53G
light: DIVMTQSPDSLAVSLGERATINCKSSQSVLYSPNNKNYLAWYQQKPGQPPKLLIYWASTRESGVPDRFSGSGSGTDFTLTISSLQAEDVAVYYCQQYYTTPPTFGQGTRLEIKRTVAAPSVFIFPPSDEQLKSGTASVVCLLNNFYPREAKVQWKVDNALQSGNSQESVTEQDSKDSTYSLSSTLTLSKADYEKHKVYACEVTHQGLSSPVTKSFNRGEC
Kd: 22 nM

B24: PMAB136 (bispecific antibody, human IgG1, kappa)
heavy: B14 heavy with S32Y
light: not shown
Kd: 36 nM

B25: PMAB135 (bispecific antibody, human IgG1, kappa)
heavy: B14 heavy with N31S
light: not shown
Kd: 3 nM

B26: PMAB142 (bispecific antibody, human IgG1, kappa)
heavy: B14 heavy
light: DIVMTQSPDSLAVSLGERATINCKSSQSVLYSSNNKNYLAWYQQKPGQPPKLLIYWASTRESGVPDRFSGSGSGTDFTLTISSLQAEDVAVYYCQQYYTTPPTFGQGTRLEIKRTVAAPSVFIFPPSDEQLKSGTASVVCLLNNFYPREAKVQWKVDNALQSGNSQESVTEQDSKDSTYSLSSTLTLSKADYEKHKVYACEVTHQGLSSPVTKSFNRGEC
Kd: 33 nM

B31: PMAB217 (bispecific antibody, human IgG1, kappa)
heavy: QVQLVQSGAEVKKPGASVKVSCKASGYTFSDHYMHWVRQAPGQGLEWMGTIAPSGGRTSYAQKFQGRVTMTRDTSTSTVYMELSSLRSEDTAVYYCAADNGHASGWLYYYGMDVWGQGTTVTVSSASTKGPSVFPLAPSSKSTSGGTAALGCLVKDYFPEPVTVSWNSGALTSGVHTFPAVLQSSGLYSLSSVVTVPSSSLGTQTYICNVNHKPSNTKVDKKVEPKSCDKTHTCPPCPAPEAAGAPSVFLFPPKPKDTLMISRTPEVTCVVVDVSHEDPEVKFNWYVDGVEVHNAKTKPREEQYNSTYRVVSVLTVLHQDWLNGKEYKCKVSNKALPAPIEKTISKAKGQPREPQVYTLPPSREEMTKNQVSLTCLVKGFYPSDIAVEWESNGQPENNYKTTPPVLDSDGSFFLYSKLTVDKSRWQQGNVFSCSVMHEALHNHYTQKSLSLSPGGGGGSGGGGSGGGGSEVQLLESGGGLVQPGGSLRLSCAASGFTFSDFWMHWVRQAPGKGLEWISYISGDSGYTNYADSVKGRFTISRDNSKNTLYLQMNSLRAEDTAVYYCARDRPYYYYMDVWGKGTTVTVSSGGGGSGGGGSGGGGSGGGGSDIQMTQSPSSLSASVGDRVTITCRASQSVSRSLAWYQQKPGKAPKLLIYAASSLQSGVPSRFSGSGSGTDFTLTISSLQPEDFATYYCQQYKSYPVTFGQGTKVEIK
light: not shown
Kd: 424 nM

Next, values leading:

Kd: 1790 nM
B1: PMAB274 (antibody, human IgG1, kappa, V domains shown)
VH: EVQLVQSGAEVKKPGASVKVSCKASGYTFTTYYMHWVRQAPGQGLEWMGIINPSGGSTSYAQKFQGRVTMTRDTSTSTVYMELSSLRSEDTAVYYCASGWVYWGQGTLVTVSS
VL: DIQMTQSPSSLSASVGDRVTITCQASRDIKNYLAWYQQKPGKAPKLLIYAASSLQSGVPSRFSGSGSGTDFTLTISSLQPEDFATYYCQQSYSTPPTFGPGTKVDIKR

Kd: 896 nM
B2: PMAB277 (antibody, human IgG1, kappa, V domains shown)
VH: B1 VH
VL: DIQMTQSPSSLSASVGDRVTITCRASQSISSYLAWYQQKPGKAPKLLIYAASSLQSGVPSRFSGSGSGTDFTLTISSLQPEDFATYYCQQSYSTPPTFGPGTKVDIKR

Kd: 892 nM
B3: PMAB278 (antibody, human IgG1, kappa, V domains shown)
VH: B1 VH with T28S, T31S
VL: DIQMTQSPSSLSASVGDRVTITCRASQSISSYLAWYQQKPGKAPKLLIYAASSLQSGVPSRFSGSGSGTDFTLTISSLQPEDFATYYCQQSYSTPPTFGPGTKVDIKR

Kd: 849 nM
B4: PMAB275 (antibody, human IgG1, kappa, V domains shown)
VH: B1 VH with T28S, T31S
VL: B1 VL

Kd: 985 nM
B5: PMAB276 (antibody, human IgG1, kappa, V domains shown)
VH: B1 VH with T28S
VL: B1 VL

Kd: 809 nM
B16: PMAB177 (bispecific antibody, human IgG1, kappa)
heavy: B14 heavy with N31S, S32Y, T52S
light: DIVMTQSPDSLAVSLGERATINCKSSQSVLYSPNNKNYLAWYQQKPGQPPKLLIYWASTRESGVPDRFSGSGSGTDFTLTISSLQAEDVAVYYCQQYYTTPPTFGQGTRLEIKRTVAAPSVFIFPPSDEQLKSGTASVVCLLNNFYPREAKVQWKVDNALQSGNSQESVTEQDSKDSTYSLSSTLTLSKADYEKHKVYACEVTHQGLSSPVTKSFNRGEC

Kd: 98.6 nM
B17: PMAB199 (bispecific antibody, human IgG1, kappa)
heavy: EVQLLESGGGLVQPGGSLRLSCAASGFTFSSYDMSWVRQAPGKGLEWVSGITISGGSTYYADSVKGRFTISRDNSKNTLYLQMNSLRAEDTAVYYCARGRGGSGWLDYWGQGTTVTVSSASTKGPSVFPLAPSSKSTSGGTAALGCLVKDYFPEPVTVSWNSGALTSGVHTFPAVLQSSGLYSLSSVVTVPSSSLGTQTYICNVNHKPSNTKVDKKVEPKSCDKTHTCPPCPAPEAAGAPSVFLFPPKPKDTLMISRTPEVTCVVVDVSHEDPEVKFNWYVDGVEVHNAKTKPREEQYNSTYRVVSVLTVLHQDWLNGKEYKCKVSNKALPAPIEKTISKAKGQPREPQVYTLPPSREEMTKNQVSLTCLVKGFYPSDIAVEWESNGQPENNYKTTPPVLDSDGSFFLYSKLTVDKSRWQQGNVFSCSVMHEALHNHYTQKSLSLSPGGGGGSGGGGSGGGGSEVQLLESGGGLVQPGGSLRLSCAASGFTFSSYWMHWVRQAPGKGLEWVSYISGSGGYTNYADSVKGRFTISRDNSKNTLYLQMNSLRAEDTAVYYCARDRPYGYYMDVWGKGTTVTVSSGGGGSGGGGSGGGGSGGGGSDIQMTQSPSSLSASVGDRVTITCRASQSISSSLAWYQQKPGKAPKLLIYAASSLQSGVPSRFSGSGSGTDFTLTISSLQPEDFATYYCQQYKSYPVTFGQGTKVEIK
light: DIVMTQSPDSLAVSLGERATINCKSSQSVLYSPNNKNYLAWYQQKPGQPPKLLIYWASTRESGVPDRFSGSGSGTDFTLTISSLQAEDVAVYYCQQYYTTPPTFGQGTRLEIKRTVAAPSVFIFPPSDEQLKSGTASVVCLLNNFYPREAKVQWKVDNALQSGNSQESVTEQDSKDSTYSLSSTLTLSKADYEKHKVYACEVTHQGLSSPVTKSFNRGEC

Kd: 1300 nM
B23: PMAB178 (bispecific antibody, human IgG1, kappa)
heavy: B14 heavy with N31S, S32Y, I53G
light: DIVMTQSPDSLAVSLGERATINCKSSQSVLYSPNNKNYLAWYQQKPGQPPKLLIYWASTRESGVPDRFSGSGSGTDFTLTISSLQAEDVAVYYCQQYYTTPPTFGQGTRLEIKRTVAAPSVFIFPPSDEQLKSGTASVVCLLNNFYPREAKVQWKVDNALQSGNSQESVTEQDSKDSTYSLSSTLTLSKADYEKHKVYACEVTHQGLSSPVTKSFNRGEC

Kd: 11300 nM
B27: PMAB183 (bispecific antibody, human IgG1, kappa)
heavy: B14 heavy with G50A, T52S, I53G
light: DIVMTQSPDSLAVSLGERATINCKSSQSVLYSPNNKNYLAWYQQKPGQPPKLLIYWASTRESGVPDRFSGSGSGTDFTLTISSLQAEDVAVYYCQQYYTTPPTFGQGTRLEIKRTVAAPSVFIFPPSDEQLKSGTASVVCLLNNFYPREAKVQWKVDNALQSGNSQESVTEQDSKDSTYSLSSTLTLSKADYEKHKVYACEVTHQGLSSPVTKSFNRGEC

Kd: 651 nM
B28: PMAB195 (bispecific antibody, human IgG1, kappa)
heavy: B17 heavy with T114L
light: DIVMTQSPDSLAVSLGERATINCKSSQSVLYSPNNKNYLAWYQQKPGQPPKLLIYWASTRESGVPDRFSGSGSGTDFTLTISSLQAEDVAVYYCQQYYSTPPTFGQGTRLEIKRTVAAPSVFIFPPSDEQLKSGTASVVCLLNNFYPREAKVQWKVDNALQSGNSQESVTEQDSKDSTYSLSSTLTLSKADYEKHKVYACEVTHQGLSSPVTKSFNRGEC

Kd: 104 nM
B29: PMAB198 (bispecific antibody, human IgG1, kappa)
heavy: B17 heavy with T114D
light: not shown

Kd: 577 nM
B30: PMAB194 (bispecific antibody, human IgG1, kappa)
heavy: B17 heavy with T114L
light: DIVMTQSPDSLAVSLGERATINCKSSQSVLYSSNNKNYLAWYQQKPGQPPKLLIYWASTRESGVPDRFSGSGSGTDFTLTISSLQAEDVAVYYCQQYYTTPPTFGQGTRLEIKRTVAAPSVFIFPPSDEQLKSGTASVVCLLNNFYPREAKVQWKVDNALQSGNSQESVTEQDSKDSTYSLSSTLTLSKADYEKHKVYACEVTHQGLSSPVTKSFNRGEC

Kd: 1710 nM
B32: PMAB204 (bispecific antibody, human IgG1, kappa)
heavy: B31 heavy with T50I
light: not shown

Kd: 445 nM
B33: PMAB207 (bispecific antibody, human IgG1, kappa)
heavy: B31 heavy
light: not shown

Kd: 341 nM
B34: PMAB201 (bispecific antibody, human IgG1, kappa)
heavy: B31 heavy with S30T
light: not shown

Kd: 795 nM
B35: PMAB205 (bispecific antibody, human IgG1, kappa)
heavy: B31 heavy with R57S
light: not shown

Kd: 755 nM
B36: PMAB202 (bispecific antibody, human IgG1, kappa)
heavy: B31 heavy with D31S
light: not shown
